B1: scPOM2 (scFv, V domains shown)
VH: VKLQESGGEVVRPGTSVKVSCKASGYAFTNYLIEWVKQRPGQGLEWIGVINPGSGDTNYNEKFKGKATLTADKSSSTAYMQLNSLTSDDSAVYFCARSGAAAPTYYAMDYWGQGVSVTVSS
VL: DIVMTQSHKFMSTSVGDRVSITCKASQVGTALAWYQQKPGQSPKLLIYWASTRHTGVPDRFTGSGSGTDFTLTISNVQSEDLSDYFCQQYSSYPTFGGGTKLEIK
B2: Full IgG POM2 monoclonal antibody (antibody, V domains shown)
VH: B1 VH
VL: B1 VL

Legend:
[1] = molecular target: T1, Recombinant mouse PrP full length (23-230) (mouse, UniProt P04925 23-230); test: SPR
[2] = molecular target: T1, Recombinant mouse PrP full length …; test: SPR; remark: listed apart in the source

T1 sequence (P04925 23-230): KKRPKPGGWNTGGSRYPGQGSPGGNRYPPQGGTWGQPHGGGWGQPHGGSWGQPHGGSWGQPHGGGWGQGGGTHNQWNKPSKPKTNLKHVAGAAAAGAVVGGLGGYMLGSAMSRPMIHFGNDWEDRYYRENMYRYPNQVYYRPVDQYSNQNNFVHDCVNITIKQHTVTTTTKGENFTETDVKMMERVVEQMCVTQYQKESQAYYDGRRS

| Binder | Kd [1] [nM] | koff [2] [s⁻¹] |
| --- | --- | --- |
| B1 | 23 | 0.00036 |
| B2 | 0.1 | 9.5e-06 |

— article PMC6181439 (2018)
